Laboratory results reported in PMC4520771 (Journal of structural biology, 2015).

Molecular target: the molecule itself
Test: SEC

B1: EspB_(1-338), N-terminal EspB fragment (domain or fragment)
chain: MTQSQTVTVDQQEILNRANEVEAPMADPPTDVPITPCELTAAKNAAQQLVLSADNMREYLAAGAKERQRLATSLRNAAKAYGEVDEEAATALDNDGEGTVQAESAGAVGGDSSAELTDTPRVATAGEPNFMDLKEAARKLETGDQGASLAHFADGWNTFNLTLQGDVKRFRGFDNWEGDAATACEASLDQQRQWILHMAKLSAAMAKQAQYVAQLHVWARREHPTYEDIVGLERLYAENPSARDQILPVYAEYQQRSEKVLTEYNNKAALEPVNPPKPPPAIKIDPPPPPQEQGLIPGFLMPPSDGSGVTPGTGMPAAPMVPPTGSPGGGLPADTAAQ
binding result: binds
